Numbering of substitutions follows the chain as printed.
B1: Gαs-Gαz-13: Gαs-based chimeric G protein, final 13 C-terminal amino acids substituted with those of Gαz (protein)
chain: MGCLGNSKTEDQRNEEKAQREANKKIEKQLQKDKQVYRATHRLLLLGAGESGKSTIVKQMRILHVNGFNGEGGEEDVPDYASNSDGEKATKVQDIKNNLKEAIETIVAAMSNLVPPVELANPENQFRVDYILSVMNVPNFDFPPEFYEHAKALWEDEGVRACYERSNEYQLIDCAQYFLDKIDVIKQADYVPSDQDLLRCRVLTSGIFETKFQVDKVNFHMFDVGGQRDERRKWIQCFNDVTAIIFVVASSSYNMVIREDNQTNRLQEALNLFKSIWNNRWLRTISVILFLNKQDLLAEKVLAGKSKIEDYFPEFARYTTPEDATPEPGEDPRVTRAKYFIRDEFLRISTASGDGRHYCYPHFTCAVDTENIRRVFNDCRDVIIQNNLKYIGLC
modifications: Chimeric protein
notes: Gαs-based chimeric G protein, final 13 C-terminal amino acids substituted with those of Gαz
B2: Gαs-Gα15-13: Gαs-based chimeric G protein, final 13 C-terminal amino acids substituted with those of Gα15 (protein)
chain: B1 chain with V382S, I383V, I384L, Q385A, N386R, N387Y, K389D, Y390E, G392N, C394L
modifications: Chimeric protein
notes: Gαs-based chimeric G protein, final 13 C-terminal amino acids substituted with those of Gα15

Molecular target: T1, M2 muscarinic acetylcholine receptor (M2AchR) (Rattus norvegicus, UniProt P10980)
T1 construct: expressed in transfected cells; host or cells: HEK-293
T1 sequence (P10980 1-466): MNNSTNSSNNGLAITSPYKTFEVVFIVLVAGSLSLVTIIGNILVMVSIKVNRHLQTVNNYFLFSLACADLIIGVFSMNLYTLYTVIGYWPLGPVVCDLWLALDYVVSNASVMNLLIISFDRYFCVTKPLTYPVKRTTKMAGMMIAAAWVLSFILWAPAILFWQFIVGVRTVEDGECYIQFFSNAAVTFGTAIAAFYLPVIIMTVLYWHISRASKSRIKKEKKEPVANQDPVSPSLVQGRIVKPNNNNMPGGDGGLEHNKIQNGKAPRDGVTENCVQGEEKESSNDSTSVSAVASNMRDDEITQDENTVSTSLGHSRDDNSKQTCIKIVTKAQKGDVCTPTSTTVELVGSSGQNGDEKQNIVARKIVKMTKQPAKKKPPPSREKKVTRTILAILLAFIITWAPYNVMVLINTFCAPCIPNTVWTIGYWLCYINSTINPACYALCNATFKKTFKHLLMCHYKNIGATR
Assay: CRE-SEAP reporter gene assay, coupling of Gαs-based chimeric G proteins with M2AchR (transient)
Type: cell-based
Conditions: HEK-293 cells cotransfected with chimera, M2AchR and CRE-SEAP; 10 uM acetylcholine
Experimental: The constructs encoding chimeric G proteins were made by substituting C-terminal amino acids of Gαs (SEQ ID NO: 1) with the corresponding C-terminal amino acid sequences of other Gα subunits. A first set of Gαs-based chimeric G proteins was prepared by designing constructs encoding seven Gαs-Gαi chimeras in which the C-terminal 5, 11, 13, 28, 65, 84, or 131 amino acids of Gαs were substituted with the corresponding C-terminal amino acids from the […]. Briefly, HEK-293 cells were cotransfected with chimera constructs together with the CRE-SEAP reporter gene construct and a cDNA encoding the M2 muscarinic acetylcholine receptor (M2AchR), a GPCR that couples to Gαo but not to Gαs and inhibits cAMP production. The transfected cells were cultured in the presence or absence of acetylcholine and then assayed for SEAP activity.
A series of chimeric constructs were prepared in which the final 13 C-terminal amino acids of the Gαs subunit were substituted with the final 13 C-terminal amino acids from Gαo, Gαz, Gαt, Gαq, or Gα15 subunits. Also tested were the Gαs-Gαi-13 and a chimera containing the last 5 C-terminal amino acids of Gαk (Gαs-Gαk-5 (SEQ ID NO: 2)). These chimeric constructs were tested for coupling with M2AchR. […] The Gαs-Gαo-13 (SEQ ID NO: […]) and Gαs-Gα15-13 (SEQ ID NO: 7) allowed approximately 2-fold increases in SEAP activity.
Chimeric G protein cloning: An insert containing rat Gαs cDNA was cut out using the restriction enzymes SaII and HinDIII, and ligated into pcDNA3.1(−) cut with XhoI and HinDIII. The chimeric G proteins with the desired C-terminal amino acid substitutions were prepared by PCR using Gαs as a template. More specifically, Gαs was PCR amplified between an internal EcoRI site and the stop codon, with a 3′ HinDIII placed immediately after the stop codon. A different 3′ oligonucleotide was used for each Gαs chimera and contained a 39 bp sequence that encoded the substituted amino acids at the C-terminus selected from the donor Gα subunit.
M2AchR GPCR cloning: Rat M2AchR receptor was cloned by PCR from cDNA templates (ATCC) and ligated into pcDNA 3.1(−) for expression in mammalian cells.
CRE-SEAP Reporter Gene Assay: 0.5×10^5 HEK-293 cells (ATCC) were seeded into each well of a 96 well plate 24 hours prior to transfection. cDNAs encoding M2AchR, SEAP reporters (Mercury Pathway Profiling System, BD Biosciences), and G protein chimeras were transfected into HEK-293 cells using lipofectamine reagent (Invitrogen) according to the manufacturer's protocols. […]
Following transfection, the cells were maintained for 48 hours in 200 ul serum free media containing 10 uM acetylcholine (Sigma). […] Fluorescence was then measured using a CytoFluor 4000 multi well plate reader (Applied Biosystems).

Molecule | increase in SEAP activity
B1 | approximately 2 fold
B2 | approximately 2 fold
